This note sets out measurements from US20250026813A1 (published 2025).

The target in experiment [1] is full soluble spike trimer of SARS-CoV-2 virus (stabilised, in-house) (SARS-CoV-2, UniProt P0DTC2 14-1208; P10104 458-484).
Experiment [2] concerns the target SARS-CoV-2 spike protein trimer stabilised by double proline (PP) mutation (FIG. 2B sequence) with C (SARS-CoV-2, UniProt P0DTC2 14-1208; P10104 458-484).

B1: IMPI-059 (antibody, V domains shown)
VH: EVQLVESGGGLIQPGGSLRLSCAASGFTVSSIYMSWVRQAPGKGLEWVSIIYSRGSTDYADSVKGRFTISRDISKNTLYLQMNSLRAEDTAVYYCARDGTMVRGVHAFDIWGQGTMVTVSS
VL: DIQMTQSPPSLSASIGDRVTITCQASQDISNYLNWYQQKPGKAPKLLIYDASNLETGVPSRFSGSGSGTDFTLTISNLQPEDIVTYYCQQYDNLPSSFGQGTKLEIK
For B1, in experiment [1], the IC50 (usually the concentration at which inhibition is half-maximal) came to 8.38 nM.

B2: IMPI-013 (antibody, V domains shown)
VH: EVQLVESGGGLVQPGRSLRLSCAASGFTFDDYAMHWVRQTPGKGLEWVSGISWNSGSIGYADSVKGRFTISRDNAKNSLYLQMNSLRAEDTALYYCTKDLGLGIGFYYGLDVWGQGTTVTVSS
VL: AIQMTQSPSSLSTSVGDRVTITCRASQGIRNDLGWYQLKPGKAPKLLIYDASTLQSGVPSRFSGSGSGTDFTLTISSLEPEDLATYYCLHHYTYPWTFGHGTKVELK
On to B2, for which the Kd (as a rule, the equilibrium constant for the complex coming apart) in experiment [2] was found to be 0.299 nM.

B3: IMPI-054 (antibody, V domains shown)
VH: EVQLVESGGGLIQPGGSLRLSCAASGLTVSSNYMSWVRQAPGKGLEWVSIIYSGGSTYYADSVKGRFTISRDNSKNTLYLQMNSLRAEDTAVYYCARLGGYYYYGMDVWGQGTTVTVSS
VL: DIQMTQSPSSLSASVGERVTITCQASQDIRNYLNWYQKKPGKAPKLLIYDSSNLETGVPSRFSGSGSGTDFTFTISSLQPEDIATYYCQQYDNLPITFGQGTRLEIK
The molecule B3 gave an IC50 in experiment [1] of 11.6 nM.

B4: IMPI-017 (antibody, V domains shown)
VH: EVQLVESGGGLIQPGGSLRLSCAAAGLTVSSNYMNWVRQVPGKGLEWVSVIYSGGSTYYADSVKGRFTISRDNSKNTLYLQMNSLRAEDTAVYYCARDLGTLGMDVWGQGTTVTVSS
VL: DIQLTQSPSFLSASVGDRVTITCWASQGISTYLAWYQQKPGKAPKLLIYAASTLQSGVPSRFSGSGSGTEFTLTISSLQPEDFATYYCQQLNSYLPTFGQGTKVEIK
In turn, B4 displayed a half-inhibitory concentration (IC50) in experiment [1] of 3.15 nM. Compared with the last molecule, the IC50 is about 3.7-fold lower.

B5: IMPI-037 (antibody, V domains shown)
VH: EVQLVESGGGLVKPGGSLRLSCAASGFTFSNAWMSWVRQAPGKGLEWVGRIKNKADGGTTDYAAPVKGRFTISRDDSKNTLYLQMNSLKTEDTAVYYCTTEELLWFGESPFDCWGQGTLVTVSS
VL: DIQLTQSPSFLSASVGDRVTITCWASQGINSYLAWYQQKPGKAPKLLIYAASTLQSGVPSRFSGSGSGTEFTLTISSLQPEDFTTYYCQQFNDYPRTFGPGTKVEIK
Take B5: the 50% inhibitory concentration (IC50) in experiment [1] was 13.7 nM.
